Measured values: US20130243764A1 (published 2013)

Key:
[1] = biological target: TNF alpha (species not given); assay: cell-based or functional assay
[2] = biological target: TNF alpha (species not given); assay: cell-based or functional assay; remark: listed apart in the source

B1: BPC1500 (antibody, V domains shown)
VH: EVQLVESGGGLVQPGRSLRLSCAASGFTFDDHALHWVRQAPGKGLEWVSAITWNSGHIDYADSVEGRFTISRDNAKNSLYLQMNSLRAEDTAVYYCAKVRYLSTASSLDYWGQGTLVTVSS
VL: not shown
[1]
  IC50 value, L929 neutralisation assay (cell viability): 0.13 µg/mL
[2]
  IC50 value, TNFα-induced IL-6 release assay (whole blood): 0.11 nM
